According to IntAct's records for PubMed 16229834:

B1: PRKC apoptosis WT1 regulator protein (Rattus norvegicus (Rat)), Q62627 (parent)
chain: MATGGYRSSGSTTDFLEEWKAKREKMRAKQNPVGPGSSGGDPAAKSPAGPLAQTTAAGTSELNHGPAGAAAPAAPGPGALNCAHGSSALPRGAPGSRRPEDECPIAAGAAGAPASRGDEEEPDSAPEKGRSSGPSARKGKGQIEKRKLREKRRSTGVVNIPAAECLDEYEDDEAGQKERKREDAITQQNTIQNEAASLPDPGTSYLPQDPSRTVPGRYKSTISAPEEEILNRYPRTDRSGFSRHNRDTSAPANFASSSTLEKRIEDLEKEVLRERQENLRLTRLMQDKEEMIGKLKEEIDLLNRDLDDMEDENEQLKQENKTLLKVVGQLTR
partner: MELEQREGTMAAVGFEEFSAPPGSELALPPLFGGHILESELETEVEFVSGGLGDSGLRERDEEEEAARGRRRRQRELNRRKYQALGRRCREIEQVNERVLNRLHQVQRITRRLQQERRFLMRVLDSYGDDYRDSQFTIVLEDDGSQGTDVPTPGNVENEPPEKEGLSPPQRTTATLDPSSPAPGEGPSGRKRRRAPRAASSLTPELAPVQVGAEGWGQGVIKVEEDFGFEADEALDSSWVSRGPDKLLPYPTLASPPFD

Variants of: B1
Conditions: with tfpt_rat Tfpt

Variant	effect of a mutation on the interaction
MATGGYRSSGSTTDFLEEWKAKREKMRAKQNPVGPGSSGGDPAAKSPAGPLAQTTAAGTSELNHGPAGAAAPAAPGPGALNCAHGSSALPRGAPGSRRPEDECPIAAGAAGAPASRGDEEEPDSAPEKGRSSGPSARKGKGQIEKRKLREKRRSTGVVNIPAAECLDEYEDDEAGQKERKREDAITQQNTIQNEAASLPDPGTSYLPQDPSRTVPGRYKSTISAPEEEILNRYPRTDRSGFSRHNRDTSAPANFASSSTLEKRIEDLEKEVLRERQENLRLTRLMQDKEEMIGKAKEEIDLLNRDLDDMEDENEQAKQENKTLLKVVGQATR [L295A;L316A;L330A]	disrupting interaction
